Measured values as given in publication PMC7824274, “Separation of Coiled-Coil Structures in Lamin A/C Is Required for the Elongation of the Filament” (Cells, 2020).

T1: lamin A/C 250-400 fragment, K316C (human, UniProt P02545 250-400, K316C)
T1 construct: lamin A/C, human, residues 250-400 with K316C; the methods say that preys were His-tag cleaved; also called lamin 250-400 K316C; source: E. coli BL21 (DE3), purified (cobalt-Talon, TEV cleavage, HiTrap Q, SEC); not shown: His-tag, N-terminal, cleaved
T1 sequence (looked up): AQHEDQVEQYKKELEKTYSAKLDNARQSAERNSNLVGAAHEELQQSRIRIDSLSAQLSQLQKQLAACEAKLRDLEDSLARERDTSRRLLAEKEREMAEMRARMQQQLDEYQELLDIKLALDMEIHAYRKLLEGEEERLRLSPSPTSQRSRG

T2: lamin A/C 250-400 fragment, wild type, tag-free (human, UniProt P02545 250-400)
T2 construct: lamin A/C, human, residues 250-400 (C-terminal part of coil 2); His-tag cleaved with TEV protease; also called lamin 250-400; coil 2 fragment; source: E. coli BL21 (DE3), purified (cobalt-Talon, TEV cleavage, HiTrap Q, SEC); not shown: His-tag, N-terminal, cleaved
T2 sequence (looked up): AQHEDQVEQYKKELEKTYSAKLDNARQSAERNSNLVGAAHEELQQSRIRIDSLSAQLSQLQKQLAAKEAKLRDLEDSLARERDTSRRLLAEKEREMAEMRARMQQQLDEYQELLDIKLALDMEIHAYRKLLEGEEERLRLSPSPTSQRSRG

T3: lamin A/C 250-400 fragment, Y267C (human, UniProt P02545 250-400, Y267C)
T3 construct: lamin A/C, human, residues 250-400 with Y267C; the methods say that preys were His-tag cleaved; also called lamin 250-400 Y267C; source: E. coli BL21 (DE3), purified (cobalt-Talon, TEV cleavage, HiTrap Q, SEC); not shown: His-tag, N-terminal, cleaved
T3 sequence (looked up): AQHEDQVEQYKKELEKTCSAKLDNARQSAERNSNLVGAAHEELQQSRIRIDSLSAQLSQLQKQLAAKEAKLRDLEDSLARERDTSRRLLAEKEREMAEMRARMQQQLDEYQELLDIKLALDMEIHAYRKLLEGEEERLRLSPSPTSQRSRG

T4: His-tagged lamin A/C 250-400 fragment, L362C (human, UniProt P02545 250-400, L362C)
T4 construct: lamin A/C, human, residues 250-400 with L362C; also called His-lamin 250-400 L362C; source: E. coli BL21 (DE3), purified (cobalt-Talon, HiTrap Q, SEC); not shown: His-tag, N-terminal, kept
T4 sequence (looked up): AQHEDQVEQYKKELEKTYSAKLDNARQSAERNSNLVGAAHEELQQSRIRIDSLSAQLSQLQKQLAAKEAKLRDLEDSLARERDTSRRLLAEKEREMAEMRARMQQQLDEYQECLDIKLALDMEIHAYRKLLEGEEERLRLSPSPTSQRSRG

T5: His-tagged lamin A/C 250-400 fragment, wild type (human, UniProt P02545 250-400)
T5 construct: lamin A/C, human, residues 250-400 (C-terminal part of coil 2); pProEx-HTa vector: a TEV protease cleavage site stands between the His-tag and the lamin residues; also called His-lamin 250-400 WT; source: E. coli BL21 (DE3), purified (cobalt-Talon, HiTrap Q, SEC); not shown: His-tag, N-terminal, kept
T5 sequence (looked up): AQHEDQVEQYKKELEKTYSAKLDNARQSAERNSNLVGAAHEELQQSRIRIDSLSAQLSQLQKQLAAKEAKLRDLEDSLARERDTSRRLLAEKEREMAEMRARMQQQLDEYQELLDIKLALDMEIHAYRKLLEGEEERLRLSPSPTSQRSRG


What was measured:
Conditions in all cases: both partners purified
[1] = biological target: T1, lamin A/C 250-400 fragment, K316C; assay: pull-down; His-tagged lamin 1-125 (wild type or L38C, L42C) on Ni-NTA resin, lamin 250-400 fragments (wild type or cysteine mutants) as prey; oxidized (0.5 mM GSSG) and reducing (5 mM TCEP) conditions; SDS-PAGE
[2] = biological target: T2, lamin A/C 250-400 fragment, wild type, …; assay: as above
[3] = biological target: T3, lamin A/C 250-400 fragment, Y267C; assay: as above
[4] = biological target: T4, His-tagged lamin A/C 250-400 fragment, …; assay: pull-down; His-tagged lamin 250-400 fragments on Ni-NTA resin with the lamin 1-125 fragment; reducing condition; SDS-PAGE
[5] = biological target: T5, His-tagged lamin A/C 250-400 fragment, …; assay: pull-down; His-tagged lamin 250-400 fragments on Ni-NTA resin with the lamin 1-125 fragment; nonreducing (oxidized) condition; SDS-PAGE

binding result [1] | binding result [2] | binding result [3] | binding result [4] | binding result [5] | Binder
binds | binds | binds |  |  | His-tagged lamin A/C 1-125 fragment, wild type (domain or fragment, human, UniProt P02545 1-125, looked up, pProEx-HTa vector: a TEV protease cleavage site stands between the His-tag and the lamin residues; also called coil 1a fragment; source: E. coli BL21 (DE3), purified (cobalt-Talon, HiTrap Q, SEC); not shown: His-tag, N-terminal, kept) METPSQRRATRSGAQASSTPLSPTRITRLQEKEDLQELNDRLAVYIDRVRSLETENAGLRLRITESEEVVSREVSGIKAAYEAELGDARKTLDSVAKERARLQLELSKVREEFKELKARNTKKEG
 |  |  | binds | binds | lamin A/C 1-125 fragment, wild type, prey of Figure 6b (domain or fragment, human, UniProt P02545 1-125, looked up, the pull-down methods say that preys were His-tag cleaved lamin proteins; the purification paragraph names TEV cleavage only for lamin 250-400; also called coil 1a fragment; source: E. coli BL21 (DE3), purified (cobalt-Talon, HiTrap Q, SEC); not shown: His-tag, N-terminal, cleaved) METPSQRRATRSGAQASSTPLSPTRITRLQEKEDLQELNDRLAVYIDRVRSLETENAGLRLRITESEEVVSREVSGIKAAYEAELGDARKTLDSVAKERARLQLELSKVREEFKELKARNTKKEG
